From the supplement of paper PMC6755084

B1: F1*; the commonest letter at each place (parent)
chain: GAGACCGCAACTGAAAAGTTGTTATCACTTGTCGTAAGACACTTTGGATGGGTTGAAGTTCTGCACGTAGAAGCAAAAGGC

Variants of: B1
Experiment: fraction ligated after 30 min (ligated reads / total reads); higher = more ligase activity
Conditions: with F1*sub RNA substrate (template-directed ligation), 42 °C
Description: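 Chip-synthesised pool of F1* ligase ribozyme variants (all single and double substitutions, single, double and triple deletions in the catalytic core and GAA bulge, plus designed variants) was transcribed with T7 and reacted as a pool with excess substrate F1*sub for 30 min at 42 C in 50 mM EPPS pH 8.5, 25 mM MgCl2. Ligated and unligated bands were separated by PAGE, barcoded by RT and deep sequenced; fraction ligated = ligated reads / total reads per variant, relative activity = FL / FL of wild type (0.826). Sequences are the DNA template of the ribozyme.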

Row | Variant | fraction ligated
1 | GAGACCGCAACTGAAAAGTTGTTAGGACTTGTCGTAAGACACTTTGGATGGGTTGAAGTTCTGCACGTAGAAGCAAAAGGC | 0.0648
2 | GAGACCGCAACTGAAAAGTTGTTAGTACTTGTCGTAAGACACTTTGGATGGGTTGAAGTTCTGCACGTAGAAGCAAAAGGC | 0.191
3 | GAGACCGCAACTGAAAAGTTGTTAGCAATTGTCGTAAGACACTTTGGATGGGTTGAAGTTCTGCACGTAGAAGCAAAAGGC | 0.348
4 | GAGACCGCAACTGAAAAGTTGTTAGCAGTTGTCGTAAGACACTTTGGATGGGTTGAAGTTCTGCACGTAGAAGCAAAAGGC | 0.541
5 | GAGACCGCAACTGAAAAGTTGTTAGCATTTGTCGTAAGACACTTTGGATGGGTTGAAGTTCTGCACGTAGAAGCAAAAGGC | 0.675
6 | GAGACCGCAACTGAAAAGTTGTTAGCACTTGTAGTAAGACACTTTGGATGGGTTGAAGTTCTGCACGTAGAAGCAAAAGGC | 0.526
7 | GAGACCGCAACTGAAAAGTTGTTAGCACTTGTGGTAAGACACTTTGGATGGGTTGAAGTTCTGCACGTAGAAGCAAAAGGC | 0.535
8 | GAGACCGCAACTGAAAAGTTGTTAGCACTTGTTGTAAGACACTTTGGATGGGTTGAAGTTCTGCACGTAGAAGCAAAAGGC | 0.704
9 | GAGACCGCAACTGAAAAGTTGTTAGCACTTGTCGTAAGAAACTTTGGATGGGTTGAAGTTCTGCACGTAGAAGCAAAAGGC | 0.229
10 | GAGACCGCAACTGAAAAGTTGTTAGCACTTGTCGTAAGAGACTTTGGATGGGTTGAAGTTCTGCACGTAGAAGCAAAAGGC | 0.58
11 | GAGACCGCAACTGAAAAGTTGTTAGCACTTGTCGTAAGATACTTTGGATGGGTTGAAGTTCTGCACGTAGAAGCAAAAGGC | 0.732
12 | GAGACCGCAACTGAAAAGTTGTTAGCACTTGTCGTAAGACAATTTGGATGGGTTGAAGTTCTGCACGTAGAAGCAAAAGGC | 0.737
13 | GAGACCGCAACTGAAAAGTTGTTAGCACTTGTCGTAAGACAGTTTGGATGGGTTGAAGTTCTGCACGTAGAAGCAAAAGGC | 0.737
14 | GAGACCGCAACTGAAAAGTTGTTAGCACTTGTCGTAAGACATTTTGGATGGGTTGAAGTTCTGCACGTAGAAGCAAAAGGC | 0.797
15 | GAGACCGCAACTGAAAAGTTGTTAGCACTTATCGTAAGACACTTTGGATGGGTTGAAGTTCTGCACGTAGAAGCAAAAGGC | 0.0861
16 | GAGACCGCAACTGAAAAGTTGTTAGCACTTCTCGTAAGACACTTTGGATGGGTTGAAGTTCTGCACGTAGAAGCAAAAGGC | 0.0618
17 | GAGACCGCAACTGAAAAGTTGTTAGCACTTTTCGTAAGACACTTTGGATGGGTTGAAGTTCTGCACGTAGAAGCAAAAGGC | 0.0799

Row | Variant | fraction ligated
18 | GAGACCGCAACTGAAAAGTTGTTAGCACTTGTCATAAGACACTTTGGATGGGTTGAAGTTCTGCACGTAGAAGCAAAAGGC | 0.77
19 | GAGACCGCAACTGAAAAGTTGTTAGCACTTGTCCTAAGACACTTTGGATGGGTTGAAGTTCTGCACGTAGAAGCAAAAGGC | 0.737
20 | GAGACCGCAACTGAAAAGTTGTTAGCACTTGTCTTAAGACACTTTGGATGGGTTGAAGTTCTGCACGTAGAAGCAAAAGGC | 0.735
21 | GAGACCGCAACTGAAAAGTTGTTAGCACTTGTCGTAAAACACTTTGGATGGGTTGAAGTTCTGCACGTAGAAGCAAAAGGC | 0.676
22 | GAGACCGCAACTGAAAAGTTGTTAGCACTTGTCGTAACACACTTTGGATGGGTTGAAGTTCTGCACGTAGAAGCAAAAGGC | 0.165
23 | GAGACCGCAACTGAAAAGTTGTTAGCACTTGTCGTAATACACTTTGGATGGGTTGAAGTTCTGCACGTAGAAGCAAAAGGC | 0.659
24 | GAGACCGCAACTGAAAAGTTGTTAGCACTTGTCGTAAGACACTTTAGATGGGTTGAAGTTCTGCACGTAGAAGCAAAAGGC | 0.266
25 | GAGACCGCAACTGAAAAGTTGTTAGCACTTGTCGTAAGACACTTTCGATGGGTTGAAGTTCTGCACGTAGAAGCAAAAGGC | 0.135
26 | GAGACCGCAACTGAAAAGTTGTTAGCACTTGTCGTAAGACACTTTTGATGGGTTGAAGTTCTGCACGTAGAAGCAAAAGGC | 0.134
27 | GAGACCGCAACTGAAAAGTTGTTAGCACTTGTCGTAAGACACTTTGAATGGGTTGAAGTTCTGCACGTAGAAGCAAAAGGC | 0.363
28 | GAGACCGCAACTGAAAAGTTGTTAGCACTTGTCGTAAGACACTTTGCATGGGTTGAAGTTCTGCACGTAGAAGCAAAAGGC | 0.242
29 | GAGACCGCAACTGAAAAGTTGTTAGCACTTGTCGTAAGACACTTTGTATGGGTTGAAGTTCTGCACGTAGAAGCAAAAGGC | 0.102
30 | GAGACCGCAACTGAAAAGTTGTTAGCACTTGTCGTAAGACACTTTGGATAGGTTGAAGTTCTGCACGTAGAAGCAAAAGGC | 0.103
31 | GAGACCGCAACTGAAAAGTTGTTAGCACTTGTCGTAAGACACTTTGGATCGGTTGAAGTTCTGCACGTAGAAGCAAAAGGC | 0.142
32 | GAGACCGCAACTGAAAAGTTGTTAGCACTTGTCGTAAGACACTTTGGATTGGTTGAAGTTCTGCACGTAGAAGCAAAAGGC | 0.436
33 | GAGACCGCAACTGAAAAGTTGTTAGCACTTGTCGTAAGACACTTTGGATGGGTTAAAGTTCTGCACGTAGAAGCAAAAGGC | 0.442
34 | GAGACCGCAACTGAAAAGTTGTTAGCACTTGTCGTAAGACACTTTGGATGGGTTCAAGTTCTGCACGTAGAAGCAAAAGGC | 0.0471
